Assay results as given in the DeepSol protein solubility set.

Experiment: soluble on expression in E. coli; label from the status in PepcDB or PDB records

With “MGSDKIHHHHHHMTYQAREAGLKEVEQLVHEQAVYQYLQENNEGGQMDKDQMLFLHEAISGSDLTDAAAYRVVSATLYMILAHDTHEKIDEPGDVVKLTRKEQELTVLAGDFYSALYYRTLAELEMIPLLRALQSGVQETNTAKTNIYQLHVATDEEYLSQLTLTNAAIFAKFAKYFMKDETFIALGCQFFLLKRLQTELATYKEIGASRLKRAFDHGYFAKEAVSNFESWLVAIIRDVKSEVERLKTEAEPLSNLLEKRIIEVIND” as the sequence, how does the “soluble on expression in E. coli” value read?
Its value is “not soluble”.

With “MGSDKIHHHHHHMVEFQSRIGKDGRLTVMEIPFDARETFQMPKGTIFVCGTINGIPYRGKLLSRGNGKQVLTIDKTLQKGLGYAGQDFPVNVAMACENQAEMVDEEKEAIPRLHSDMEAITAIAGRASVRKYMDKTVEPQKLEVILRAGLSAPSAKNKRPFHFVVVEDKAVLGAWAAGNSNAKMLSHAPCCIVVCGDGNVEGTRDFLVGGCAAATQNMLIAIHALGLGGVWCGVLRGKEWSRQVAADLYLPVKVEPLAVIALGYPTEQEKAPVPWDMKSHIHYERW” as the sequence, how does the “soluble on expression in E. coli” value read?
The value was “not soluble”.

Which “soluble on expression in E. coli” value does the source give for “MGSDKIHHHHHHMVEKLKPRYSVVWTNKIAEVPQNAWNALAMPLKTPFLEWEWLNNLETSQSATAKTGWLPNHLTLWRDRTLIAAAPLYLKGHSSGEFVFDHQWAELADRIGVQYYPKLLGMTPFTPAEGYRFLIAPGEDEDEITAMMVHEIDTFCSKNRISGCHFLYVDPQWRPMLERHGFTTWLHHSYVWENAGFKTFDDYLKVFNANQRRNIKRERKAVEKAGLRLQPLSGDEIPYSLFPSMYQFYADTCDKFGWWGSKYLTQRFFEQLHNDYRHRVLFVAAYSEEDNSHPLGMSFCLFKGDKLYGRYWGSFQEIDCLHFDACYYAPIEWAIANGIQIFDPGAGGRHKKRRGFPAMPNHSLHRFYNNRLGQIIRPYIKEVNQLEQQEIEAINAELPFSNRDS” here?
Its value is “not soluble”.

Which “soluble on expression in E. coli” value does the source give for “MGSDKIHHHHHHMVEQLKPRYSSVWINKIAEVPQDAWDALALPLKTPFLEWDWLNNLETSHSATAKTGWLPNHLTLWRDRTLIAVAPLYIKGHSYGEFVFDHQWAELAERIGVQYYPKLLGMTPFTPAEGYRFLIADGEDEEEITAMMVHEIDSFCVKHNISSCHFLYVDPQWQPVLEKQGFTAWLHHSFIWENSGFQNFDDYLTVFNANQRRNIKRERKAVEKAGLQLQAVTGDAIPKSLFPLMYQFYADTCDKFGWWGSKYLTKQFFEQLHHNYRHRVVFFPAYHEQDPRQPLGMSFCLFKDDRLYGRYWGSFQEIDCLHFDACYYAPIEWAIANGIQSFDPGAGGRHKKRRGFPAAPNYSLHRFYNSRLGQILRPYINEVNQLEEQEIAAINAELPFSQK” here?
Its value is “not soluble”.

With “MGSDKIHHHHHHMVHVKMKGSKMLFEALLKEGVDTIFGIPGGAIINVYDELCNYEDKINFYLFRHEQGATHAADGYARVTGKPGVVIVTSGPGATNTVTGIATAYMDSIPIVVITGQVPTSFIGTDAFQEVDVTGITMPITKHNHLVTSIEELPYAIKEMFYVATTGRPGPVLLDFPKDIQTAEGEFNYPDTVEIPGYKPTVKGHPKQIKKAVELLKESKRPVVIVGGGANLSGAMDLVNQFIDKFKVPAVSTLMGRGVNPSDEKLYYEGIGMHGTYYGNYAVANADLIIALGVRFSDRILGNPRTFAKNARIVHVDIDPAEIGKNVRVDVPIVGDLKSVLEEFLKYEIETDFSDWIEELQEIKKKYPLTYKRDGKLIKPQYVVEKVNEVFPDDTVVVADVGQNQMWVAQFYKFKHQRSFLCSGGLGTMGYALPAGIGAKIGAPDKEVVVFAGDGGFQMNIQELMTIKRYNLPVKIIVMDNKALGMVRQWQQLFFNCRYSATILSDNPDFAKIAEAVGIKAMRIEKPDQVDEAIEKLAKSKEPMLIHAVVDPAENVLPMVPPGGDVGTPLIEAPYDETFVERVLKVIEESRRGDER” as the sequence, how does the “soluble on expression in E. coli” value read?
Its value is “not soluble”.

Which “soluble on expression in E. coli” value does the source give for “MGSDKIHHHHHHMVIKNIDAATVAKKFLVRGYNIDPKAAELICKSGLFSDELVDKICRIANGGFIIEKSVVEEFLRNLSNLKPATLTPRPEERKVEEVKASCIALKVIKDITGKSSCQGNVEDFLMYFNSRLEKLSRIIRSRVNTTPIAHAGKVRGNVSVVGMVNEVYERGDKCYIRLEDTTGTITCVATGKNAEVARELLGDEVIGVTGLLKGSSLYANRIVFPDVPINGNGEKKRDFYIVFLSDTHFGSKEFLEKEWEMFVRWLKGEVGGKKSQNLAEKVKYIVIAGDIVDGIGVYPGQEDDLAISDIYGQYEFAASHLDEIPKEIKIIVSPGNHDAVRQAEPQPAFEGEIRSLFPKNVEHVGNPAYVDIEGVKVLIYHGRSIDDIISKIPRLSYDEPQKVMEELLKRRHLSPIYGGRTPLAPEREDYLVIEDVPDILHCGHIHTYGTGFYRGVFMVNSSTWQAQTEFQKKVNLNPMPGNVAVYRPGGEVIRLRFYGE” here?
Its value is “not soluble”.

Which “soluble on expression in E. coli” value does the source give for “MGSDKIHHHHHHMVKAVVLLSGGLDSATVLAIARQQGYECYALSVSYGQRHGAELAAAKNLARSLGATAHKIIQVDLSTFGGSALIDKEREIPTDGVTPGIPSTYVPARNTIMLSIALAWAEVLGSGDIFIGVNAIDYSGYPDCRPEYIEAFETMANVATKAGIEGTRLAIHAPLMNLSKAEIIKRGGVLGVDYSMTVSCYQADDAGLACGVCDSCRLRRAGFESADVPDVTRYHAGFRQTPAS” here?
The value was “not soluble”.

For “MGSDKIHHHHHHMVKKREGDEVQSELMRILAEKQERKENIALVTVISSNSPRGCRAGEMMLVDRFGYIIGDGIGDSLLQENAQREAQICINEGISRRVILPSEEGMTEVFINAFCHRDQLIIVGSGNVALNVYRIASIVGYSITVIDNRAETLSRERFPEAKELLLGDIVELLKAYNIDENTSIVLLSYHHEFDEAALLTVIHSPARYIGIMGNKHKVTAYFSKLNELNIAEELISRVHVPVGIDIGGERAAEIALAVVAEMQAIKYGRAGGFRILQSEITGKVERDELF”, which “soluble on expression in E. coli” value is on record?
The value was “not soluble”.

Which “soluble on expression in E. coli” value does the source give for “MGSDKIHHHHHHMVKLFREKKDMGSPKIQNFKRQTVLHKGQRTRLPATYIAPEDVSIWDIIRPNLGKDFSRFTVPVFMNEPLSFLQRLSENVQYNYLLEKAAKCSDDMERIEFYEFRFFFNWKKLKHQMKLSNSAHKTGFTFANSINYVAAFALATVSANHKRLSKPFNPLLLETFELERNGVRFLAEQVSHHPPISAVYAESDEFTVEGTVEPTLGFWMTKLLANPHAHLKLTFKKTGETYSWSAPKCAIYNVIMGKMYMNFTSHMKIESSGTYDAVFSFDNKGYYNHKGGDVHVEGHIFEGKNKIKALYGNWTLFLASCDNEDFKHHRKEYLRMFNETVSEKDQGPVVPGSKILWVSNQIPKLFDDQFHFTNFTLSLNEMYPGMSDTVAPTDSRRRKDMKALEDGKNDEAEEFKHKYEEEQRERRTTKTGDVPMWFAKNDEGHWAYKGGYWDRDYSNCLELFESLENSSTNSSNSSISSVD” here?
The value was “not soluble”.

Which “soluble on expression in E. coli” value does the source give for “MGSDKIHHHHHHMVKRKNVAVIGGGVSGLAAAKAFDERGHRVTGFERSHDFGGVWELSRSYPDVQTQSPKDLYCYTDLPMPDAYPEWPKGPQVHAYLHSYANKHNLPRLFQLNTNILSMDRRADGQPGWTLTIEAAGRVRKEDFDFVAICTGQFSDKNILTHPGQEAFVAGGGEVIHSSEYTDSEMARGKHVVVLGGSKSATDIVVNAARSGAKSVTMVYRENVWRVPYFVGGINFKRLLYMRAQEQQFNQWGKSPLQRVIAALLKPLVWANFRGLETLLKAQLGLKKWNMVPDTPIEKEASCSLPIVTPGLFESFRDGTVKPIQGTYDRYEDGHVVLTTGDRVPCDLSVLAVGWKLGIPYLAQEYRDKLIEADGQYRVYRLAVNPDLPDMGFVGFNSSFCTILSAEMIANWLVRFADGQLAHQPSAQEMNANIEMMLNWRRKERPAAQVYGGLCSAPFHFKHFDELLADMGAGVRKRANPLAEQFSYPDARAYGRFLASTPQYQAG” here?
The value was “not soluble”.

For “MGSDKIHHHHHHMVKTSQLPAVDRTVPLEQISQFAEKVTIFTDELRETILAPRPRKTAPIFKTGEIAEMCNISHSQVQYLATKGDGELPPGTAAGTGRTRTFTLQEARTWVQKVSDIYQTPLVTGTREPEGKIIITAQLKGGSAKTTTTMCLAQGLTLRGRKVLVVDLDPQASLSELCGLYAEKDVSPEDSVLPYIYDQQIEGGLQSRVQSTYWDGLDLIPAHTELIGAEFHLPAMQKIKPGFRFWTVLREGLEPLRKHYDYILMDTSPSLSYMNLNALLAADAMVMPMVPENLDFISSLSFWRLFSDVSKSFIKYEADKKYDFVSLLLSRVDYGRTSSAPIVRAWAQSAYESWLHSIEVPASSVMSTGALAFSTVFDVSSTHSAAKSLQRVRQPIVDYCRWLDEIYAEKWRSAQ”, which “soluble on expression in E. coli” value is on record?
Its value is “not soluble”.

For “MGSDKIHHHHHHMVLLETNRLRLQTIDIPLLDAASKQDHQAIKELGYETNGEWPNSDFFEAIPYFREILVKNNGTKGFDSWIIVKKDNYEIVGGTGFLGDPDENGMIEIGFATNKSHRRKGYCVEAAQKLINWALSRETVSRITARCEHDNLGSQKTLEKLGFILNHKSAEYKHWIYVTK”, which “soluble on expression in E. coli” value is on record?
Its value is “not soluble”.

For “MGSDKIHHHHHHMVMLKMKKTIAYYRSSTDLQENSIEMQQIKAFEYSMKKRITIDEEYVDKDVSARKKTLMQRPGMNKLMKEIEAGVVGSIIVYKRDRFARKLQEHMQLYRLFQEYDIDVYFSSDSEVQMNYSPIGEYIEAILGSICENEGSLIAQRIQETKIAKFLSGKYAGNLPYGYEKGEPNADGQVNILQVSHEIEVVKEIYNALLNKECKSIQELCNDLNEKYKTEETKDWDQSKVVNIVKNPIYHGLRVMNFGSKEYKKAYKNIKVVEKTDWDIANEQLDKMIVKRETGKETIQFLLENILYCHECQKPLIAKKRMRSYQDYYIYECKEHDVCVEAGYIEVEILKHAKTFFHRLLDENFNELYERSTYQNVRKIKKLIGSQEMIIKGVTKKVGKLIDQWLNCQKMQREHEGNDCAKCQSNQHIGEIKEANEILKSEKRKLQHLDMRLYEIKNFKEKAKEWITHLECPKDILLLEKEERKRFYRDMIHCIQVDSWEYHIVFKHPFMLIQEVHQNSETV”, which “soluble on expression in E. coli” value is on record?
Its value is “not soluble”.

For “MGSDKIHHHHHHMVNDMQERQNRYWQLLHQPDRLLLLHQASSVEQFVTLMGDWLAWPELTLDQMLDFVHMQRWEDFTPKLALFSQAWLPYRYCSQSKEVYWIPAFNQLSKPFLEDDISDIRLGLLAIFIQPKTLLKSLLTQCDSVPEIHPCLMIFHWSRCGSTLVSSSFSKLNDCLVISESMLCSDIMRDDFWSQEVKVKLVDLCLRLQGRFRHGERHLVVKWNAWDLAYWPMLLALYPQSRVLCLIRNPKDILASHQRLAGRHMVEGQGLLSTEWHIQQIETVSTTFSLNKFRISVLQHLAQLTHALLNSNRAILLDYQQVKDFHPTTLSTILGRPLSMDEIECWQDHWCFDAKQQGQVFTPAVSNQPVPLRELQSPSWQQLFMTYNQLLQRLYWDKKHDV”, which “soluble on expression in E. coli” value is on record?
Its value is “not soluble”.

With “MGSDKIHHHHHHMVNNVDVYYEGWGERWQWGRLASSTALTGRPLIMFEYSEEAIRRGLELSSLRLPLNGPRLSRGFPSYQLGLPGPVYDALPDGWGMLLMDRLFRLRGLNTARIGPLERLTYIGSNAMGAMSFEPSQPEASAVSEDIPLAQLSAEVQEVLDGEGGEFLQRLLQMGGSPQGARPKALLYCDPDTKTLTTSAASGLDAWLFKFPAKQEHPEVCAIEAVYAQCLRECHIHTPDTEYIELPNGQAAFASRRFDRQNGLRIPMQSLAAFTEANYQSPGSLDYANFLRATQICTNDVREKVLAFERVVFNVIFNNRDDHTKNFAYIMSSSGQWKLAPAYDVTYCEGPGGYHQMDVMGEALEISRELIHRLGVQEADLTSSQVDIIIEQYGEVAASFAKRAAGMFPGCITQDTLRTIQDRINDNIRCLQKR” as the sequence, how does the “soluble on expression in E. coli” value read?
Its value is “not soluble”.
